Test results as given in US20210054078A1 (PHARMABCINE, published 2021).
Read-outs that look alike come from different tables or passages of the source.

Legend:
[1] = biological target: T1, human PD-L1 (soluble protein of the kinetic measurements) (human, UniProt Q9NZQ7 19-238, limits assumed); assay: BLI (Octet), antibody fixed on biosensor, PD-L1 in solution
T1 construct: kept apart from the His-tag protein of the ELISA; also called hPD-L1
Protocol: (§1) The binding ability of the selected anti-PD-L1 antibody to human or mouse PD-L1 was measured using the Octet system (Fortebio Inc. US). For this purpose, an anti-PD-L1 antibody was fixed on a biosensor, and binding kinetics at each concentration of human or mouse PD-L1 were measured to calculate a binding rate constant (kₐ), a dissociation rate constant (kdis) and a binding constant (KD) (Table 3).

[2] = biological target: T2, mouse PD-L1 (soluble protein of the kinetic measurements) (mouse, UniProt Q9EP73 19-238, limits assumed); assay: as above
T2 construct: kept apart from the His-tag protein of the ELISA; also called mPD-L1
Protocol: as §1

[3] = biological target: T1, human PD-L1 (soluble protein of the …); assay: as above; remark: listed apart in the source
Protocol: as §1
(§2) The cell-binding ability of the optimized anti-PD-L1 antibody was measured through flow cytometry. The experiment was performed in the same manner as in Example 6. […] In order to evaluate binding force, binding kinetics were analyzed using Octet and the binding constant was calculated (Table 7).

[4] = biological target: T2, mouse PD-L1 (soluble protein of the …); assay: as above; remark: listed apart in the source
Protocol: as §1, §2

[5] = biological target: T3, human PD-L1 on hPD-L1/CHO-K1 overexpressing cells (human, UniProt Q9NZQ7 19-290); assay: flow cytometry on hPD-L1/CHO-K1 cells (sheet label hPD-1/CHO-K1)
T3 construct: whole, on cells; also called human PD-L1-expressing cells
Protocol: (§3) For flow cytometry, overexpressing cell lines (hPD-L1/CHO-K1, mPD-L1/CHO-K1), established by introducing human and. mouse PD-L1 genes into CHO-K1 cells, were used. Each cell was maintained and cultured, washed with PBS, suspended in 5 mM EDTA and then recovered through centrifugation. A cell suspension (5×10⁶ cells/ml) was prepared using a FACS-exclusive buffer (containing 2% FBS and PBS 0.05% sodium azide), and was seeded at 100 μl/tube. […] of a test antibody was added at 100 μl to each test tube and then allowed to stand at 4° C. for 30 minutes to induce antibody-cell binding. […] After washing with 2 ml of FACS buffer, 200 μl of FACS buffer was added to suspend the cells. As a positive control group, fluorescence labeling was conducted using FITC-conjugated anti-human PD-L1 antibody (#558065, BD Biosciences) and PE-conjugated anti-mouse […] (#558091, BD Biosciences).
as §2

[6] = biological target: T4, mouse PD-L1 on mPD-L1/CHO-K1 overexpressing cells (mouse, UniProt Q9EP73 19-290); assay: flow cytometry on mPD-L1/CHO-K1 cells (sheet label mPD-1/CHO-K1)
T4 construct: whole, on cells; also called mouse PD-L1-expressing cells
Protocol: as §3, §2

[7] = biological target: T4, mouse PD-L1 on mPD-L1/CHO-K1 …; assay: flow cytometry, purified IgG on mPD-L1/CHO-K1 cells, PE anti-human IgG-Fc
Protocol: as §3

[8] = biological target: T5, Mouse PD-L1-HisTag (#50010-M08H, Sino Biological Inc.) (mouse, UniProt Q9EP73 19-238); assay: ELISA on coated His-tag mouse PD-L1, OD450-630
T5 construct: Bought protein coated on the ELISA plate; also called mPD-L1; His-tag mouse PD-L1 protein; not shown: His tag
T5 sequence (Q9EP73 19-238 limits assumed, stated change not applied): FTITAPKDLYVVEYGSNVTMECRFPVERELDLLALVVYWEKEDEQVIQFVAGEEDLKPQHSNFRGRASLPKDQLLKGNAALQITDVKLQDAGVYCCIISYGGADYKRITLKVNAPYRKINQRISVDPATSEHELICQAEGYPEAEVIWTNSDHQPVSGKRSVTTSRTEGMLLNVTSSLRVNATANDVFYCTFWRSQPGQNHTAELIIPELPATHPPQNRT

T2 sequence (Q9EP73 19-238 limits assumed): as the sequence (Q9EP73 19-238 limits assumed, stated change not applied) above
T1 sequence (Q9NZQ7 19-238 limits assumed): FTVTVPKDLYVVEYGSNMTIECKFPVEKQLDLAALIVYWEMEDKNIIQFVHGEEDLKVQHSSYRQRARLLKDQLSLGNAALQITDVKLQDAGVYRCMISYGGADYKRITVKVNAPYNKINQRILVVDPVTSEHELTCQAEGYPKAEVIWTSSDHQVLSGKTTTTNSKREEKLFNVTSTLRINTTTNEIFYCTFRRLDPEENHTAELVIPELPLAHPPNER
T3 sequence (Q9NZQ7 19-290): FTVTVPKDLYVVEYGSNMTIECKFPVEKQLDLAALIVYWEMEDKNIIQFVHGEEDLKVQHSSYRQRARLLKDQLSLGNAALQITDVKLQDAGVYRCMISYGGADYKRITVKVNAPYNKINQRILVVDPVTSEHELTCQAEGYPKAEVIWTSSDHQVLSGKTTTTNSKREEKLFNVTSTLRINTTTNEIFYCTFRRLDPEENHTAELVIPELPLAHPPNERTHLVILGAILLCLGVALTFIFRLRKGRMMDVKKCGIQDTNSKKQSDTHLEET
T4 sequence (Q9EP73 19-290): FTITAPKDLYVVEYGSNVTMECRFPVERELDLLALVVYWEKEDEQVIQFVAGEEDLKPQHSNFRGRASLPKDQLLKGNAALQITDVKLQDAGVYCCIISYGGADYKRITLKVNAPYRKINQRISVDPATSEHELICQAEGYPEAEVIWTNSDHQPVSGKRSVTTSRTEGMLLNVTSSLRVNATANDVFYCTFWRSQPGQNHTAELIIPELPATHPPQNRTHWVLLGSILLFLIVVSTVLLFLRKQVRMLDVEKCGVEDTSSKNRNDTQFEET

Row | Binder | koff [3] | kon [3] | Kd [4] | koff [4] | kon [4] | % Gated in M1 [5] | Geo Mean in M1 [5] | Geo Mean, all events [5] | Mean in M1 [5] | Mean, all events [5] | % Gated in M1 [6] | Geo Mean in M1 [6] | Geo Mean, all events [6] | Mean in M1 [6] | Mean, all events [6] | Kd [3] | also measured
1 | ME4 anti-PD-L1 antibody (IgG form) (antibody, V domains shown, Converted to IgG with the vectors pIgGHD-6A6Hvy and pIgGLD-6A6Lgt; Expressed in Expi293F cells) VH: QVQLVESGAEVKKPGSSVKVSCKASGGTFNNYAVSWVRQAPGQGLEWMGRIIPILGIANYAQTFQGRVTITADKSTTTAYMELSSLRSEDTAVYYCARSYSGYAEGAFDIWGQGTMVTVSS VL: QFVLTQPPSVSGAPGQRVTISCTGSSSNIGAGYDVHWYQQLPGTAPKVLIYGNSDRPSGVPDRFSGSKSGTSASLAITGLQGEDKATYYCQSYDSRLSGPVFGTGTKVTVLG | 0.000324 s⁻¹ | 188000 M⁻¹ s⁻¹ | 37.4 nM | 0.00211 s⁻¹ | 56300 M⁻¹ s⁻¹ | 83.2% | 34.4 | 27.8 | 38.3 | 33.6 | 28.8% | 20 | 10.4 | 20.6 | 12.3 | – | Kd [1]: 1.72 nM; koff [1]: 0.000324 s⁻¹; kon [1]: 188000 M⁻¹ s⁻¹; Kd [2]: 37.4 nM; koff [2]: 0.00211 s⁻¹; kon [2]: 56300 M⁻¹ s⁻¹
2 | ME4.B10 anti-PD-L1 antibody (IgG form) (antibody, V domains shown) VH: QVQLVESGAEVKKPGSSVKVSCKASGGTFNNYAVSWVRQAPGQGLEWMGRIIPILGIANYAQTFQGRVTITADKSTTTAYMELSSLRSEDTAVYYCARSARGYAHGAFDIWGQGTMVTVSS VL: QFVLTQPPSVSGAPGQRVTISCTGSSSNIGAGYDVHWYQQLPGTAPKVLIYGNSDRPSGVPDRFSGSKSGTSASLAITGLQGEDKATYYCQSYDSRLSGPVFGTGTKVTVLG | ~2.42e-05 s⁻¹ | 145000 M⁻¹ s⁻¹ | 1.62 nM | 0.000422 s⁻¹ | 260000 M⁻¹ s⁻¹ | 50.3% | 19.4 | 11.5 | 21 | 14.2 | 18.1% | 15 | 6.41 | 15.4 | 7.85 | 0.167 nM | –
3 | ME4.A12 anti-PD-L1 antibody (IgG form) (antibody, V domains shown) VH: QVQLVESGAEVKKPGSSVKVSCKASGGTFNNYAVSWVRQAPGQGLEWMGRIIPILGIANYAQTFQGRVTITADKSTTTAYMELSSLRSEDTAVYYCARSHWGYAHGAFDIWGQGTMVTVSS VL: QFVLTQPPSVSGAPGQRVTISCTGSSSNIGAGYDVHWYQQLPGTAPKVLIYGNSDRPSGVPDRFSGSKSGTSASLAITGLQGEDKATYYCQSYDSRLSGPVFGTGTKVTVLG | 2.2e-05 s⁻¹ | 165000 M⁻¹ s⁻¹ | 2.65 nM | 0.000817 s⁻¹ | 308000 M⁻¹ s⁻¹ | 44.6% | 18.4 | 10.6 | 19.7 | 12.9 | 7.31% | 14.2 | 5.39 | 14.4 | 6.38 | 0.134 nM | –
4 | ME4.A11 anti-PD-L1 antibody (IgG form) (antibody, V domains shown) VH: QVQLVESGAEVKKPGSSVKVSCKASGGTFNNYAVSWVRQAPGQGLEWMGRIIPILGIANYAQTFQGRVTITADKSTTTAYMELSSLRSEDTAVYYCARSRGGYAHGAFDIWGQGTMVTVSS VL: QFVLTQPPSVSGAPGQRVTISCTGSSSNIGAGYDVHWYQQLPGTAPKVLIYGNSDRPSGVPDRFSGSKSGTSASLAITGLQGEDKATYYCQSYDSRLSGPVFGTGTKVTVLG | 0.000109 s⁻¹ | 118000 M⁻¹ s⁻¹ | 4.86 nM | 0.000626 s⁻¹ | 129000 M⁻¹ s⁻¹ | 52.6% | 19.4 | 12.1 | 21 | 14.7 | 9.44% | 14.2 | 5.55 | 14.5 | 6.63 | 0.918 nM | –
5 | ME4.B12 anti-PD-L1 antibody (IgG form) (antibody, V domains shown) VH: QVQLVESGAEVKKPGSSVKVSCKASGGTFNNYAVSWVRQAPGQGLEWMGRIIPILGIANYAQTFQGRVTITADKSTTTAYMELSSLRSEDTAVYYCARSSFGYSVGAFDIWGQGTMVTVSS VL: QFVLTQPPSVSGAPGQRVTISCTGSSSNIGAGYDVHWYQQLPGTAPKVLIYGNSDRPSGVPDRFSGSKSGTSASLAITGLQGEDKATYYCQSYDSRLSGPVFGTGTKVTVLG | 3.19e-06 s⁻¹ | 164000 M⁻¹ s⁻¹ | 1.22 nM | 0.000379 s⁻¹ | 310000 M⁻¹ s⁻¹ | 81.6% | 29.2 | 22.5 | 33.8 | 28.9 | 27.2% | 16.1 | 7.13 | 16.6 | 9.1 | 0.0194 nM | –
6 | ME4.A2 anti-PD-L1 antibody (IgG form) (antibody, V domains shown) VH: QVQLVESGAEVKKPGSSVKVSCKASGGTFNNYAVSWVRQAPGQGLEWMGRIIPILGIANYAQTFQGRVTITADKSTTTAYMELSSLRSEDTAVYYCARSSRGYAHGAFDIWGQGTMVTVSS VL: QFVLTQPPSVSGAPGQRVTISCTGSSSNIGAGYDVHWYQQLPGTAPKVLIYGNSDRPSGVPDRFSGSKSGTSASLAITGLQGEDKATYYCQSYDSRLSGPVFGTGTKVTVLG | 1.02e-05 s⁻¹ | 174000 M⁻¹ s⁻¹ | 3.01 nM | 0.000986 s⁻¹ | 328000 M⁻¹ s⁻¹ | 72.4% | 29.1 | 20.7 | 33 | 26.4 | 51% | 19.1 | 10.8 | 20.3 | 13.8 | 0.0586 nM | –
7 | 1G1 anti-PD-L1 antibody (IgG form) (antibody, V domains shown, Converted to IgG with the vectors pIgGHD-6A6Hvy and pIgGLD-6A6Lgt; Expressed in Expi293F cells; also called IG1) VH: QVQLVESGGGLVQPGRSLRLSCAASGFTFDDYAMHWVRQAPGKGLEWVSGISWNSGSIGYADSVKGRFTISRDNAKNSLYLQMNSLRAEDTAVYYCAKPRDISSWLGMDVWGQGTTVTVSS VL: DIQMTQSPSSVSASVGDRVTITCRASQDISSWLAWYQQKPGKAPKLLIYAASSLQSGVPSRFSGSGSGTDFTLTISSLQPEDSATYYCQQTNNFPYTFGQGTKLEIKR | – | – | – | – | – | – | – | – | – | – | – | – | – | – | – | – | binding result [7]: no binding; Kd [1]: 0.629 nM; koff [1]: 0.000146 s⁻¹; kon [1]: 232000 M⁻¹ s⁻¹; binding result [8]: no binding
